In article PMC7996396, “Affinity and Structural Analysis of the U1A RNA Recognition Motif with Engineered Methionines to Improve Experimental Phasing” one finds Kd data, which are given here for three molecules.

Data set [1] has as its target TBP6.9(F34M/F37M/F77M) 7Se-Met (Homo sapiens (lab-evolved)) (UniProt P09012). Nature of the data set: ITC. Conditions: ITC: 50 mM Na-HEPES pH 7.5, 50 mM NaCl, 50 mM KCl, 2 mM MgCl2, 5 mM beta-mercaptoethanol, 20 C; protein in syringe, RNA in cell.
For data set [2], the target named is TBP6.9 (Homo sapiens (lab-evolved)) (UniProt P09012). Nature of the data set: ITC. Conditions: ITC: 50 mM Na-HEPES pH 7.5, 50 mM NaCl, 50 mM KCl, 2 mM MgCl2, 5 mM beta-mercaptoethanol, 20 C; protein in syringe, RNA in cell.
Chain of TBP6.9 (Homo sapiens (lab-evolved)) (P09012 whole entry, stated change not applied): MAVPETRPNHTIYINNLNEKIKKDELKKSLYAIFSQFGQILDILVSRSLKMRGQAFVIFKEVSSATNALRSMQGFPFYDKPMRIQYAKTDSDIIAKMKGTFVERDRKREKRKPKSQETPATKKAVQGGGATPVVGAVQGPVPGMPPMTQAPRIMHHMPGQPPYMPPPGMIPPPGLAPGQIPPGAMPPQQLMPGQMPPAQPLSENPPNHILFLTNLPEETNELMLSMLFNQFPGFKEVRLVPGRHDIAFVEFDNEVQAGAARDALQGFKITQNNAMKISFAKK
The target in data set [3] is dmU1A (U1A RRM1 Y31H/Q36R) (Homo sapiens, UniProt P09012 1-98, Y31H;Q36R). Nature of the data set: ITC; ITC: 50 mM Na-HEPES pH 7.5, 50 mM NaCl, 50 mM KCl, 2 mM MgCl2, 5 mM beta-mercaptoethanol, 20 C; protein in syringe, RNA in cell. As to conditions: protein: recombinant; tags: N-terminal 6xHis removed with TEV protease; hairpin, loop closed by C65-G76.
Chain of dmU1A (U1A RRM1 Y31H/Q36R) (P09012 1-98 Y31H/Q36R): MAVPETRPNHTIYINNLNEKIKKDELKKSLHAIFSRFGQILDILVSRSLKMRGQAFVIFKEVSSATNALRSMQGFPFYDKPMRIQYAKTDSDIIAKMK
The target in the next data set is dmU1A(F37M/F77M) 7Se-Met (Homo sapiens, UniProt P09012 1-98, Y31H;Q36R;F37M;F77M). Nature of the data set: ITC; Se-Met protein; ITC: 50 mM Na-HEPES pH 7.5, 50 mM NaCl, 50 mM KCl, 2 mM MgCl2, 5 mM beta-mercaptoethanol, 20 C; protein in syringe, RNA in cell. Conditions: protein: recombinant; tags: N-terminal 6xHis removed with TEV protease; hairpin, loop closed by C65-G76.
Chain of dmU1A(F37M/F77M) 7Se-Met (P09012 1-98 Y31H/Q36R/F37M/F77M): as the sequence (P09012 1-98 Y31H/Q36R) above, with F37M, F77M counted along it

Chain of TBP6.9(F34M/F37M/F77M) 7Se-Met (Homo sapiens (lab-evolved)) (P09012 whole entry, stated change not applied): as the sequence (P09012 whole entry, stated change not applied) above

For the molecule “GCAGAUCUGAGCCCGAAAGGAGCUCUCUGC [GNRA-TAR 30-mer]”, the dissociation constant Kd in data set [1] stood at 69.8 nM; in data set [2], 87.8 nM.

As for “GGAGAUCUGAGCCUGGGAGCUCUCUCC [HIV-1 TAR 27-mer]”, the Kd in data set [1] was 13.5 nM; in data set [2], 8.5 nM.

Take CGAAUCCAUUGCACUCCGGAUUCG (structured_RNA) [hpII 24-mer (U1 snRNA hairpin II)]: the Kd in data set [3] is 152 ± 7 nM; with dmU1A(F37M/F77M) 7Se-Met, 59.7 ± 11.4 nM.
